T1: human CEACAM5 protein (Sino-11077-H08H-100UG) (human, UniProt P06731 35-685)
T1 construct: Bought protein; also called soluble recombinant CEACAM5
T1 sequence (looked up): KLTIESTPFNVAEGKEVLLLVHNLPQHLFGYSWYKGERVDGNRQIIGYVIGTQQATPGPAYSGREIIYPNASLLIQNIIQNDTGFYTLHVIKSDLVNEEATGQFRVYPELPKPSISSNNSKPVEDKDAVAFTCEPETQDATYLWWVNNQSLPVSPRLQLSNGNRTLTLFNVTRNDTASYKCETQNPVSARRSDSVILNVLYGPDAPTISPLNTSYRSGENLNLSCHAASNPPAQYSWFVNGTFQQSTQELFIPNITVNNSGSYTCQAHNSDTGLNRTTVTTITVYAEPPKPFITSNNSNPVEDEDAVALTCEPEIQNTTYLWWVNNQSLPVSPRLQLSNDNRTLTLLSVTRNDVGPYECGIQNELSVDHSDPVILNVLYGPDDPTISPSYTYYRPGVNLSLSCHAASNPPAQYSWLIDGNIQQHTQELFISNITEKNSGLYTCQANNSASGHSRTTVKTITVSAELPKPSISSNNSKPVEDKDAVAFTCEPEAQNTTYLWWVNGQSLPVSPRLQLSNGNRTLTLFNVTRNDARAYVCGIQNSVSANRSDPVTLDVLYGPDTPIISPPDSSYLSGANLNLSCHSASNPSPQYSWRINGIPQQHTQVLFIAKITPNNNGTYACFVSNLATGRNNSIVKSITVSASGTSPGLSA


Assays:
human 4-1BB = molecular target: T2, human 4-1BB (human, UniProt Q07011 24-255); experiment: flow cytometry, CHO-K1 cells overexpressing human 4-1BB
T2 construct: whole, on cells; also called hu4-1BB; CD137

[1] = molecular target: T1, human CEACAM5 protein …; experiment: ELISA, human CEACAM5 protein coated at 2 ug/mL

T2 sequence (Q07011 24-255): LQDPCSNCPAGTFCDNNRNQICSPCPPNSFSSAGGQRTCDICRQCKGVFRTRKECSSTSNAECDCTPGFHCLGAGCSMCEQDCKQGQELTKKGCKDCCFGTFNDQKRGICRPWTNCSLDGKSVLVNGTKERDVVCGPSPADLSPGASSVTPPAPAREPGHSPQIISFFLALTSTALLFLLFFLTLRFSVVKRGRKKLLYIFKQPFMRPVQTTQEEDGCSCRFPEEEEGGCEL

binding result (human 4-1BB)	binding result [1]	Binder
binds		IMMU130-263-1-3 (bispecific antibody, also called parental bispecific antibody; parental antibody; not shown: IgG1 heavy chain constant region (full IgG part, Fc of IgG1 backbone with N297A mutation); light chain constant region is not described) heavy (part 1 of 2): EVQLVESGGGVVQPGRSLRLSCSASGFDFTTYWMSWVRQAPGKGLEWIGEIHPDSSTINYAPSLKDRFTISRDNAKNTLFLQMDSLRPEDTGVYFCASLYFGFPWFAYWGQGTPVTVSS heavy (part 2 of 2): GGGGSGGGGSGGGGSGGGGSEVQLLESGGGLVQPGGSLRLSCAASGFTFSSSAMSWARQTPGKGFEWVSGIYSGGSTYYTESVKDRFTISRDNSKNTVYLQMNSLKPEDTAVYYCATWGTLRFGVWAEYDHWGQGTQVTVSS light: DIQLTQSPSSLSASVGDRVTITCKASQDVGTSVAWYQQKPGKAPKLLIYWTSTRHTGVPSRFSGSGSGTDFTFTISSLQPEDIATYYCQQYSLYRSFGQGTKVEIK
	binds	Labetuzumab (antibody, V domains shown, also called Immu130; parental CEACAM5 antibody) VH: EVQLVESGGGVVQPGRSLRLSCSASGFDFTTYWMSWVRQAPGKGLEWIGEIHPDSSTINYAPSLKDRFTISRDNAKNTLFLQMDSLRPEDTGVYFCASLYFGFPWFAYWGQGTPVTVSS VL: DIQLTQSPSSLSASVGDRVTITCKASQDVGTSVAWYQQKPGKAPKLLIYWTSTRHTGVPSRFSGSGSGTDFTFTISSLQPEDIATYYCQQYSLYRSFGQGTKVEIK

— patent publication US20250206834A1 (LANOVA MEDICINES, published 2025)
